From US20220332821A1 (Novartis, published 2022)

Experiments:
soluble BCMA = target: T1, soluble BCMA (UniProt Q02223 1-54); test: cell-based or functional assay
T1 sequence (looked up): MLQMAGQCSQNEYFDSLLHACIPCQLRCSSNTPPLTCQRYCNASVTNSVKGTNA

[1] = target: T2, BCMA on KMS11 myeloma cells (UniProt Q02223 1-184); test: cell-based or functional assay
T2 sequence (looked up): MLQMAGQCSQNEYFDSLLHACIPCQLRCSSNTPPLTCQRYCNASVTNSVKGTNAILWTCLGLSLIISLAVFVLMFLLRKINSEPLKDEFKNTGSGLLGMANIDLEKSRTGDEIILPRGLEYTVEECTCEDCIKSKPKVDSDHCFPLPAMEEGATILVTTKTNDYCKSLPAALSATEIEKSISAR

Human CD3-biotin = target: T3, Human CD3-biotin (human); test: method not stated; mean of three biological replicates
T3 chain: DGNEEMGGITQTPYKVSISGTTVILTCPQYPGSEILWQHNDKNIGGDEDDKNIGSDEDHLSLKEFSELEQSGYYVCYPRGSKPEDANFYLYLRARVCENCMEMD

Cyno BCMA-Fc = target: T4, Cyno BCMA-Fc (cynomolgus, UniProt A0A2K5UD97 1-53); test: as above
T4 construct: not shown: Fc part
T4 sequence (A0A2K5UD97 entry or part of it): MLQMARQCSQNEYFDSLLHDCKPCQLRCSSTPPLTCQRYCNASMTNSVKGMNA

Mouse BCMA-Fc = target: T5, Mouse BCMA-Fc (mouse, UniProt O88472 1-49, limits assumed, not fully specified); test: as above
T5 construct: not shown: Fc part
T5 chain (looked up): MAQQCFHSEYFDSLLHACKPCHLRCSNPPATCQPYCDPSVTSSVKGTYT

B1: BSBM3 (bispecific antibody)
heavy: not shown
light: QSALTQPASVSGSPGQSITISCTGTSSDVGGYNYVSWYQQHPGKAPKLMIYDVSNRLRGVSNRFSGSKSGNTASLTISGLQAEDEADYYCSSYTSSSALYVFGSGTKVTVLGQPKAAPSVTLFPPSSEELQANKATLVCLISDFYPGAVTVAWKADSSPVKAGVETTTPSKQSNNKYAASSYLSLTPEQWKSHRSYSCQVTHEGSTVEKTVAPTECS
chain: not shown
notes: Heterodimeric IgG1 format: anti-BCMA Fab half antibody and anti-CD3 scFv-Fc half antibody; also called BSMB3
EC30 in RTCC assay, fold increase with 30 ng/mL soluble BCMA (soluble BCMA): 6 fold | EC30 in RTCC assay, fold increase with 100 ng/mL soluble BCMA (soluble BCMA): 15 fold | EC30 in RTCC assay, fold increase with 300 ng/mL soluble BCMA (soluble BCMA): 41 fold | EC50 in RTCC assay (without added recombinant soluble BCMA) [1]: ~0.07 µg/mL | EC50 in RTCC assay, BSBM3 with AL-102 (gamma secretase inhibitor that raises surface BCMA) [1]: 0.02 nM | EC50 of KMS11-Luc cell death in RTCC assay, BSBM3 alone [1]: 1 nM | Kd (Human CD3-biotin): 8.78 nM | Kd (Cyno BCMA-Fc): 1.29 nM | Kd (Mouse BCMA-Fc): 1.15 nM
